Consider 32 molecules from patent US20210380703A1.

To fix the notation:
B1: 368_A06 (antibody, V domains shown)
VH: EVQLLESGGGLVQPGGSLRLSCAASGFTFDSYSMHWVRQAPGKGLEWVAGINYNSGYKGYADSVKGRFTISRDNSKNTLYLQMNSLRAEDTAVYYCARAANWHDTHLDYWGQGTLVTVSS
VL: DIQMTQSPSSLSASVGDRVTITCRASQSILSYVNWYQQKPGKAPKLLIYAATSRHSGVPSRFSGSGSGTDFTLTISSLQPEDFATYYCQQSYNSPLTFGGGTKVEIK
B2: 374_B10 (antibody, V domains shown)
VH: B1 VH with D30S, H35N, A49S, G50S, K58T, G59S, A99G
VL: B1 VL with S31T, L47V, R54L, H55A, N93D, S94T
B3: 374_E12 (antibody, V domains shown)
VH: B1 VH with D30S, H35N, A49S, S55G, G59S, A99G, H106A
VL: B1 VL with V33L, L47V, H55A, N93D, S94N
B4: 374_F08 (antibody, V domains shown)
VH: B1 VH with H35N, A49S, S55G, G59S, A99G, H106A
VL: B1 VL with S31T, L47V, A51V, H55A, N93D, S94T
B5: 374_G09 (antibody, V domains shown)
VH: B1 VH with D30S, H35N, S55G, A99G
VL: B1 VL with L30V, S31R, V33L, L47V, R54L, H55A, N93E, S94L
B6: 374_G08 (antibody, V domains shown)
VH: B1 VH with H35N, A49S, S55G, K58T, G59S, A99G, H106A
VL: B1 VL with S31T, L47V, H55A, N93D
B7: 374_E10 (antibody, V domains shown)
VH: B1 VH with D30S, H35N, A49S, S55G, G59S, A99G, H106A
VL: B1 VL with V33L, N93D
B8: 374_B08 (antibody, V domains shown)
VH: B1 VH with H35N, S55G, K58T, G59S, A99G, H106A
VL: B1 VL with L30V, N93E, S94L
B9: 375_A12 (antibody, V domains shown)
VH: B1 VH with D30S, H35N, A49S, G59S, A99G, H106A
VL: B1 VL with V33L, L47V, A51V, H55A, N93E, S94T
B10: 375_C04 (antibody, V domains shown)
VH: B1 VH with D30S, S31D, H35N, S55G, K58T, G59S, A99G, H106A
VL: B1 VL with S31T, V33L, L47V, H55A, N93E
B11: 374_D05 (antibody, V domains shown)
VH: B1 VH with H35N, A49S, K58T, A99G
VL: B1 VL with S31T, V33L, H55A, N93D, S94T
B12: 374_G10 (antibody, V domains shown)
VH: B1 VH with D30S, H35N, A49S, G50S, K58T, G59S, A99G
VL: B1 VL with L30V, V33L, L47V, A51V, H55A, N93D
B13: 374_B03 (antibody, V domains shown)
VH: B1 VH with H35N, A49S, S55G, K58T, G59S, A99G, H106A
VL: B1 VL with S31T, V33L, L47V, H55A, N93D
B14: 374_C01 (antibody, V domains shown)
VH: B1 VH with S33G, H35N, A49S, G59S, A99G, H106A
VL: B1 VL with S31T, V33L, H55A, N93E, S94T
B15: 374_D06 (antibody, V domains shown)
VH: B1 VH with D30S, H35N, A49S, S55G, K58T, G59S, A99G, H106A
VL: B1 VL with L47V, H55A, N93D
B16: 368_B08 (antibody, V domains shown)
VH: B1 VH with S33G, H35N, A49S, G50S, S55G, K58T, G59S
VL: B1 VL with S31T, L47V, H55A, N93E, S94N
B17: 375_A07 (antibody, V domains shown)
VH: B1 VH with H35N, A49S, G50S, K58T, A99G
VL: B1 VL with S31T, V33L, H55A, N93D, S94T
B18: 375_B12 (antibody, V domains shown)
VH: B1 VH with H35N, S55G, G59S, A99G, H106A
VL: B1 VL with L30V, S31T, V33L, H55A, N93D, S94T
B19: 374_G11 (antibody, V domains shown)
VH: B1 VH with D30S, S31D, H35N, A49S, S55G, K58T, G59S, A99G, H106A
VL: B1 VL with L30I, L47V, R54L, H55A, N93D
B20: 374_H11 (antibody, V domains shown)
VH: B1 VH with D30S, H35N, A49S, S55G, K58T, G59S, A99G, H106A
VL: B1 VL with L30I, L47V, R54L, N93S, S94N
B21: 368_B03 (antibody, V domains shown)
VH: B1 VH with S31D, S33G, H35N, A49S, S55G, K58T, G59S, H106A
VL: B1 VL with S31T, V33L, L47V, R54L, H55A, Q90H, N93E, S94N
B22: 374_G03 (antibody, V domains shown)
VH: B1 VH with D30S, S31D, H35N, A49S, S55G, K58T, G59S, A99G, H106A
VL: B1 VL with L30S, V33L, L47V, H55A, Y92D, N93D, S94T
B23: 368_A12 (antibody, V domains shown)
VH: B1 VH with A49S, G50S, H106A
VL: B1 VL with S31T, V33L, L47V, H55A, N93D
B24: 374_F07 (antibody, V domains shown)
VH: B1 VH with H35N, G50S, S55G, K58T, A99G
VL: B1 VL with V33L, L47V, A51V, R54L, H55A, N93E
B25: 374_C12 (antibody, V domains shown)
VH: B1 VH with D30S, H35N, S55G, G59S, A99G, H106A
VL: B1 VL with S31T, V33L, L47V, H55A, Y92D
B26: 374_H01 (antibody, V domains shown)
VH: B1 VH with H35N, S55G, K58T, G59S, A99G
VL: B1 VL with V33L, L47V, R54L, H55A, N93E, S94N
B27: 374_D07 (antibody, V domains shown)
VH: B1 VH with H35N, A49S, G59S, A99G, H106A
VL: B1 VL with L30V, V33L, L47V, R54L, H55A
B28: 374_C09 (antibody, V domains shown)
VH: B1 VH with S33G, H35N, A49S, G50S, S55G, A99G
VL: B1 VL with L30V, V33L, L47V, H55A, N93E, S94L
B29: 374_B05 (antibody, V domains shown)
VH: B1 VH with H35N, A49S, K58T, G59S, A99G, H106A
VL: B1 VL with L30V, V33L, N93E
B30: 374_D03 (antibody, V domains shown)
VH: B1 VH with H35N, S55G, G59S, A99G
VL: B1 VL with L30V, S31T, V33L, H55A, N93D, S94T
B31: 375_A08 (antibody, V domains shown)
VH: B1 VH with D30S, H35N, S55G, K58T, A99G, H106A
VL: B1 VL with L30V, S31T, V33L, H55A, N93E
B32: 374_D10 (antibody, V domains shown)
VH: B1 VH with D30S, S33G, G50S, S55G, K58T, G59S, A99G
VL: B1 VL with S31T, H55A, N93D, S94N

Numbering of substitutions follows the chain as printed.

This assay concerns the target human Fc (human). Kind of assay: ELISA, negative control. A general note: ELISA stands for enzyme-linked immunosorbent assay.
In turn, B1 registered an optical density of 0.483 OD.
B2 came in with an optical density of 0.17 OD.
Turning to B3, the optical density turned out to be 0.177 OD.
The molecule B4 gave an optical density of 0.211 OD.
Turning to B5, the optical density was 0.223 OD.
For B6 the value was 0.206 OD; for B7, 0.165 OD.
With B8, the optical density was 0.188 OD.
For B9 the value was 0.174 OD; for B10, 0.221 OD; for B11, 0.171 OD.
To B12 belongs 0.173 OD.
For B13 the value was 0.166 OD.
Take B14: the optical density worked out at 0.167 OD.
In turn, B15 showed an optical density of 0.172 OD.
For B16 the value was 0.314 OD; for B17, 0.188 OD; for B18, 0.223 OD.
To B19 belongs 0.179 OD; to B20, 0.169 OD.
Consider B21, for which the optical density was 0.297 OD.
Turning to B22, the optical density was found to be 0.193 OD.
The molecule B23 came in with an optical density of 0.425 OD.
B24 displayed an optical density of 0.176 OD.
For B25, the optical density was found to be 0.308 OD.
B26 came in with an optical density of 0.251 OD.
Molecule B27 came in with an optical density of 0.176 OD.
As for B28, the optical density amounted to 0.154 OD.
To B29 belongs 0.168 OD; to B30, 0.216 OD.
B31 came in with an optical density of 0.205 OD.
Take B32: the optical density worked out at 0.329 OD.
